The results in this text go back to US20220265711A1 (NANJING LEGEND BIOTECH, published 2022).

The target in one assay is human CD4 (human, UniProt P01730 26-458). Kind of assay: cell-based or functional assay.
Assay [1] has as its target T1, hybrid CD4 protein: mouse CD4 backbone with human CD4 Domain 1 (human; mouse, UniProt P06332 129-457, limits assumed).
T1 construct: Transiently expressed on HEK-293 cells from the pcDNA3.4 vector; also called D1
Kind of assay: flow cytometry on HEK293-6E cells expressing mouse CD4 with human CD4 domain 1, against isotype control. The text has this:
(§1) CD4 is a member of immunoglobulin superfamily. It contains four extracellular immunoglobulin domains, Domain 1 to 4 from distal to proximal to cell membrane. The four CD4 extracellular domains and its intracellular domain were named D1-D5 and were expressed transiently with a mouse CD4 backbone in HEK-293 cells. The three antibodies were used to detect human CD4 D1-D5 expression by flow cytometry on these 293 cells.

A further assay addresses T2, HEK293-6E/domain5 (Mus musculus;Homo sapiens, UniProt P06332;P01730).
T2 construct: full-length backbone without its own intracellular domain;single domain inserted in the mouse backbone; transiently expressed on HEK-293 cells; the human part is intracellular, the extracellular part is mouse CD4; also called hybrid CD4 protein: mouse CD4 backbone with human CD4 intracellular domain; D5
The experiment in a line: flow cytometry on HEK293-6E cells expressing mouse CD4 with human CD4 domain 5 (intracellular), against isotype control.
From the text: as §1

T2 sequence (P06332 other isoform, or with tags, fused parts or gaps limits assumed): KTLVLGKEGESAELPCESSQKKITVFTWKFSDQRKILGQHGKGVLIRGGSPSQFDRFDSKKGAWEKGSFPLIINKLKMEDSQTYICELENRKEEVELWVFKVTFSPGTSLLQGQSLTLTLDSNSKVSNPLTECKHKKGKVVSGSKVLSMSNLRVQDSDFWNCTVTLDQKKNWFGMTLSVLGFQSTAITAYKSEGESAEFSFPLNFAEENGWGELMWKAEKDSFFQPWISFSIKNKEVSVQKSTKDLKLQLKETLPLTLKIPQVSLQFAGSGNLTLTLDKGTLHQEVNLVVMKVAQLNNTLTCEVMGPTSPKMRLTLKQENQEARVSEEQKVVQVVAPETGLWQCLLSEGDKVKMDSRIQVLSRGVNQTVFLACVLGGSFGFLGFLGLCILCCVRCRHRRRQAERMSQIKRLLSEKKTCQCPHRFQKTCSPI
T1 sequence (P06332 other isoform, or with tags, fused parts or gaps limits assumed): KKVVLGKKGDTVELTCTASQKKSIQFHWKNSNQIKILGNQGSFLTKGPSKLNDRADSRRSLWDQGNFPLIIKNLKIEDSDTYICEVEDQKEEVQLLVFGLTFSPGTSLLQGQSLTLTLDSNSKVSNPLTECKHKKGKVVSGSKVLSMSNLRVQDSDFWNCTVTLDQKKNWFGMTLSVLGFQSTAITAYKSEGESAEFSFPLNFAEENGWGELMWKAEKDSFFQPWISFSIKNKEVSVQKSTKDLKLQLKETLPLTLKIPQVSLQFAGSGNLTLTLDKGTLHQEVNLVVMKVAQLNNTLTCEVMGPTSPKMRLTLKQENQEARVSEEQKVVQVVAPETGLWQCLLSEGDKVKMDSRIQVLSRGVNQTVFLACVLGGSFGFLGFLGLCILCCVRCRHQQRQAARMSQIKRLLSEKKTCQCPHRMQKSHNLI

B1: CAR No. 3 (anti-CD4 chimeric antigen receptor, Tregalizumab VH/VL) (other)
chain: EEQLVESGGGLVKPGGSLRLSCAASGFSFSDCRMYWLRQAPGKGLEWIGVISVKSENYGANYAESVRGRFTISRDDSKNTVYLQMNSLKTEDTAVYYCSASYYRYDVGAWFAYWGQGTLVTVSSAGGGGSGGGGSGGGGSDIVMTQSPDSLAVSLGERATINCRASKSVSTSGYSYIYWYQQKPGQPPKLLIYLASILESGVPDRFSGSGSGTDFTLTISSLQAEDVAVYYCQHSRELPWTFGQGTKVEIKRTTTPAPRPPTPAPTIASQPLSLRPEACRPAAGGAVHTRGLDFACDIYIWAPLAGTCGVLLLSLVITLYCKRGRKKLLYIFKQPFMRPVQTTQEEDGCSCRFPEEEEGGCELRVKFSRSADAPAYKQGQNQLYNELNLGRREEYDVLDKRRGRDPEMGGKPRRKNPQEGLYNELQKDKMAEAYSEIGMKGERRRGKGHDGLYQGLSTATKDTYDALHMQALPPR
As to B1, the “CD4+ cells in the effector population after 24 h co-culture (18.9% in UNT control)” value (shortened to “CD4+ cells … (18.9% in UNT control)”) with human CD4 was determined as 12.5%.

B2: Tregalizumab (antibody, V domains shown)
VH: EEQLVESGGGLVKPGGSLRLSCAASGFSFSDCRMYWLRQAPGKGLEWIGVISVKSENYGANYAESVRGRFTISRDDSKNTVYLQMNSLKTEDTAVYYCSASYYRYDVGAWFAYWGQGTLVTVSS
VL: DIVMTQSPDSLAVSLGERATINCRASKSVSTSGYSYIYWYQQKPGQPPKLLIYLASILESGVPDRFSGSGSGTDFTLTISSLQAEDVAVYYCQHSRELPWTFGQGTKVEIKR
notes: also called Tregalizumab monoclonal antibody
Consider B2, for which the binding result (in assay [1]; in the assay with HEK293-6E/domain5) was “no binding” in each case.

B3: CAR No. 4 (anti-CD4 chimeric antigen receptor, scFv derived from SK3) (other)
chain: QVQLQQSGPELVKPGASVKMSCKASGYTFTDYVINWVKQRTGQGLEWIGETYTGSGSSYYNEKFKDKATLTVDKASNIAYMQLSSLTSEDSAVYFCARRGKGTGFAFWGQGTLVTVSAGGGGSGGGGSGGGGSDIVLTQSPASLAVSLGQRATISCKASQSVDYDGDSYMNWYQQKPGQPPKLLIYAASNLESGIPARFTGSGSGTDFTLNIHPVEEEDTATYYCQQSYEDPPTFAGGTNLEIKTTTPAPRPPTPAPTIASQPLSLRPEACRPAAGGAVHTRGLDFACDIYIWAPLAGTCGVLLLSLVITLYCKRGRKKLLYIFKQPFMRPVQTTQEEDGCSCRFPEEEEGGCELRVKFSRSADAPAYKQGQNQLYNELNLGRREEYDVLDKRRGRDPEMGGKPRRKNPQEGLYNELQKDKMAEAYSEIGMKGERRRGKGHDGLYQGLSTATKDTYDALHMQALPPR
As for B3, in the assay with human CD4, the “CD4+ cells … (18.9% in UNT control)” value was 0%.

B4: CAR No. 6 (anti-CD4 chimeric antigen receptor) (other)
chain: QIQLVQSGPELKKPGETVKISCKASGYTFTNYGMNWVKQAPGKGLKCMGWINTNTGEPTYAEEFKGRFAFSLETSATTAFLQINNLKDEDTATYFCARLGLYYDYGYYAMDYWGQGASVTVSSGGGGSGGGGSGGGGSNIVLTQSPASLAVSLGQRATISCRASESVDSYGNSFMHWYQQKPGQPPKLFIYLASNLESGVPARFSGSGSRTDFTLTIDPVEADDAATYYCQQNNEDPYTFGGGTKLEIKTTTPAPRPPTPAPTIASQPLSLRPEACRPAAGGAVHTRGLDFACDIYIWAPLAGTCGVLLLSLVITLYCKRGRKKLLYIFKQPFMRPVQTTQEEDGCSCRFPEEEEGGCELRVKFSRSADAPAYKQGQNQLYNELNLGRREEYDVLDKRRGRDPEMGGKPRRKNPQEGLYNELQKDKMAEAYSEIGMKGERRRGKGHDGLYQGLSTATKDTYDALHMQALPPR
Regarding B4, in the assay with human CD4, the “CD4+ cells … (18.9% in UNT control)” value worked out at 13.1%.

B5: Ibalizumab (antibody, V domains shown)
VH: QVQLQQSGPEVVKPGASVKMSCKASGYTFTSYVIHWVRQKPGQGLDWIGYINPYNDGTDYDEKFKGKATLTSDTSTSTAYMELSSLRSEDTAVYYCAREKDNYATGAWFAYWGQGTLVTVSS
VL: DIVMTQSPDSLAVSLGERVTMNCKSSQSLLYSTNQKNYLAWYQQKPGQSPKLLIYWASTRESGVPDRFSGSGSGTDFTLTISSVQAEDVAVYYCQQYYSYRTFGGGTKLEIKR
notes: also called Ibalizumab monoclonal antibody
B5: the binding result (in assay [1]; with HEK293-6E/domain5) was “no binding” in each case.
